Patent US20250263482A1

Biological target: human CLDN18.2 expressed on cells (human)
Test: cell-based or functional assay

Human IgG1 isotype antibody was tested, and the ADCC on KATOIII CLDN18.2 cells, LDH: max (% cytotoxity), run A was 0.3%, the ADCC on KATOIII CLDN18.2 cells, LDH: max (% cytotoxity), run B was -5.51% and the ADCC on KATOIII CLDN18.2 cells, LDH: max (% cytotoxity), run C was -7.64%. It also gave an ADCC on NCI-N87 CLDN18.2 cells, LDH: max (% cytotoxity), run A of -6.73%, an ADCC on NCI-N87 CLDN18.2 cells, LDH: max (% cytotoxity), run B of -11.7% and an ADCC on NCI-N87 CLDN18.2 cells, LDH: max (% cytotoxity), run C of -9.22%. For the same substance, the CDC on CT26 CLDN18.2 cells, LDH: max (% cytotoxity), run A was 10.8%, the CDC on CT26 CLDN18.2 cells, LDH: max (% cytotoxity), run B was -0.23% and the CDC on CT26 CLDN18.2 cells, LDH: max (% cytotoxity), run C was -0.38%. It also gave a CDC on KATOIII CLDN18.2 cells, LDH: max (% cytotoxity), run A of -0.85%, a CDC on KATOIII CLDN18.2 cells, LDH: max (% cytotoxity), run B of -2.46% and a CDC on KATOIII CLDN18.2 cells, LDH: max (% cytotoxity), run C of -1.53%.
